Experimental findings from US20220184221A1 (NUVOBIO, published 2022) are described below.

Where no end group is shown, it is not given here. [ ]: non-standard residue; d: D form. Nle = CCCC[C@H](N)C(=O)O

Test [1] concerns the target T1, recombinant KDM5C (Homo sapiens (Human), UniProt P41229 1-765).
T1 construct: Expressed in SF9 cells from baculovirus, purified on Ni-NTA and detected with an anti-His antibody; also called KDM5C-His6; JARID1CA-c022; not shown: His tag (KDM5C-His6, vector pFB-CT10HF-LIC)
T1 sequence: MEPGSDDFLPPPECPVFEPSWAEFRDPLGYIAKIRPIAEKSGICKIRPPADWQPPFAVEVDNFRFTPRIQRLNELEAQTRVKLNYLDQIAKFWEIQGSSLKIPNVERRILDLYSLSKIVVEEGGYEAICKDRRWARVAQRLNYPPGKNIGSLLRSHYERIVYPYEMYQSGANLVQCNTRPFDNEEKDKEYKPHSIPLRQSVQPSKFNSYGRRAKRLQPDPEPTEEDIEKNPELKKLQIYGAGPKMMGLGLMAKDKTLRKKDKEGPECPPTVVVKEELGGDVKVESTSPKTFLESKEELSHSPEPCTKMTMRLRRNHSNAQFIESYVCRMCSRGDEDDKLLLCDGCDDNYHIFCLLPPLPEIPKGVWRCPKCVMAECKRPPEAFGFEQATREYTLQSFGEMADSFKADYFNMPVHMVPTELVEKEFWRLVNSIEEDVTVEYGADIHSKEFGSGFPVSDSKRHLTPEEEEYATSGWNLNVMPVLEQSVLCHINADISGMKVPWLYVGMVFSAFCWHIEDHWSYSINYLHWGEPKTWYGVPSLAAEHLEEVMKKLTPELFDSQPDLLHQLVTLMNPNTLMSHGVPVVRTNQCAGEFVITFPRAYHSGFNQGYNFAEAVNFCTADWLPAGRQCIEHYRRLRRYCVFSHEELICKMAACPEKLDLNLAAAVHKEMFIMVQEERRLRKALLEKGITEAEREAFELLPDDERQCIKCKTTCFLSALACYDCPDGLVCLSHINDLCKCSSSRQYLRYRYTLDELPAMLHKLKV
The experiment in a line: OPAL peptide arrays on cellulose probed with 1 uM His-tagged KDM5C, anti-His-HRP chemiluminescence.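 Also: binding of target protein to each arrayed peptide after overnight incubation at 4 °C, read as densitometric chemiluminescence signal intensity per spot.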

Test [2] concerns the target T1, recombinant KDM5C. The experiment in a line: fluorescence polarization; fluorescein-labelled peptide, recombinant KDM5C serially diluted.
Procedure: Recombinant KDM5C protein was serially diluted in a 384-well plate, followed by the addition of fluorescein-labeled inhibitor peptide in PBS buffer. The mixtures were incubated in the dark for 30 min prior to fluorescent polarization measurements at room temperature on an EnVision Multilabel Plate Reader (PerkinElmer) with the excitation set at 480 nm and emission at 535 nm. Binding curves were generated by fitting the binding data to a hyperbolic nonlinear regression model using Prism 3.0 (GraphPad software, Inc., San Diego, Calif.), which also produced the corresponding dissociation constants (Kd).

B1: EP18 (peptide)
peptide: SETQKTHHH
As to B1, the binding result in the test with recombinant KDM5C [1] is given as “binds”.

B2: EP19 (peptide)
peptide: SETSKTHHH
As to B2, the binding result in the test with recombinant KDM5C [1] is listed as “binds”.

B3: EP38 (peptide)
peptide: SETQ[Nle]THHH
In the case of B3, the binding result with recombinant KDM5C [1] is recorded as “binds”.

B4: EP39 (peptide)
peptide: SETS[Nle]THHH
For the molecule B4, in the test with recombinant KDM5C [1], the binding result is “binds”.

B5: EP6 (peptide)
peptide: TTQSKTHHH
In the case of B5, the binding result in the test with recombinant KDM5C [1] is reported as “binds”.

B6: EP11 (peptide)
peptide: TTQQKTHHH
Turning to B6, the binding result in the test with recombinant KDM5C [1] is listed as “binds”.

B7: EP16 (peptide)
peptide: TTQTKTHHH
On to B7, for which the binding result in the test with recombinant KDM5C [1] is “binds”.

B8: EP13 (peptide)
peptide: TDDQKTHHH
For B8, the binding result in the test with recombinant KDM5C [1] is reported as “binds”.

B9: EP8 (peptide)
peptide: TEDTKTHHH
On to B9, for which the binding result with recombinant KDM5C [1] is recorded as “binds”.

B10: EP17 (peptide)
peptide: TDSTKTHHH
Take B10: in the test with recombinant KDM5C [1], the binding result is “binds”.

B11: EP4 (peptide)
peptide: TEDSKTHHH
modifications: also: fluorescein label in FP assay, end not given here
notes: Fluorescein-labelled in the fluorescence polarization assay; also called EP4 peptide
Consider B11, for which, in the test with recombinant KDM5C [2], the Kd (usually the constant that tells how readily two partners part at equilibrium) amounted to 0.11 nM.

B12: EP7 (peptide)
peptide: TDTSKTHHH
In the case of B12, in the test with recombinant KDM5C [1], the binding result is reported as “binds”.

B13: EP20 (peptide)
peptide: TDDNKTHHH
In the case of B13, in the test with recombinant KDM5C [1], the binding result is “binds”.

B14: EP14 (peptide)
peptide: TEENKTHHH
For B14, the binding result in the test with recombinant KDM5C [1] is given as “binds”.

B15: EP5 (peptide)
peptide: TEDQKTHHH
Take B15: in the test with recombinant KDM5C [1], the binding result is listed as “binds”.

B16: EP2 (peptide)
peptide: TDTQKTHHH
Take B16: the binding result in the test with recombinant KDM5C [1] is given as “binds”.

B17: EP1 (peptide)
peptide: TDTTKTHHH
For B17, the binding result with recombinant KDM5C [1] is reported as “binds”.

B18: EP3 (peptide)
peptide: TDTNKTHHH
B18: in the test with recombinant KDM5C [1], the binding result is “binds”.

B19: EP15 (peptide)
peptide: TEESKTHHH
For B19, the binding result with recombinant KDM5C [1] was “binds”.

B20: EP9 (peptide)
peptide: TEEQKTHHH
For the molecule B20, in the test with recombinant KDM5C [1], the binding result was “binds”.

B21: EP33 (peptide)
peptide: TDDQ[Nle]THHH
With B21, the binding result with recombinant KDM5C [1] is on record as “binds”.

B22: EP22 (peptide)
peptide: TDTQ[Nle]THHH
As for B22, the binding result with recombinant KDM5C [1] is reported as “binds”.

B23: EP40 (peptide)
peptide: TDDN[Nle]THHH
Consider B23, for which the binding result with recombinant KDM5C [1] was “binds”.

B24: EP35 (peptide)
peptide: TEES[Nle]THHH
In the case of B24, in the test with recombinant KDM5C [1], the binding result is on record as “binds”.

B25: EP24 (peptide)
peptide: TEDS[Nle]THHH
In the case of B25, the binding result with recombinant KDM5C [1] was “binds”.

B26: EP29 (peptide)
peptide: TEEQ[Nle]THHH
Regarding B26, in the test with recombinant KDM5C [1], the binding result was “binds”.

B27: EP25 (peptide)
peptide: TEDQ[Nle]THHH
For B27, in the test with recombinant KDM5C [1], the binding result is given as “binds”.

B28: EP34 (peptide)
peptide: TEEN[Nle]THHH
Regarding B28, the binding result in the test with recombinant KDM5C [1] is on record as “binds”.

B29: EP27 (peptide)
peptide: TDTS[Nle]THHH
B29: the binding result with recombinant KDM5C [1] is reported as “binds”.

B30: EP23 (peptide)
peptide: TDTN[Nle]THHH
As to B30, the binding result in the test with recombinant KDM5C [1] is recorded as “binds”.

B31: EP28 (peptide)
peptide: TEDT[Nle]THHH
In the case of B31, the binding result in the test with recombinant KDM5C [1] is “binds”.

B32: EP37 (peptide)
peptide: TDST[Nle]THHH
As for B32, the binding result with recombinant KDM5C [1] is reported as “binds”.

B33: EP21 (peptide)
peptide: TDTT[Nle]THHH
As for B33, in the test with recombinant KDM5C [1], the binding result is “binds”.

B34: EP44 (peptide)
peptide: GAKRHR[Nle]VLRDNI
As for B34, the binding result in the test with recombinant KDM5C [1] is listed as “binds”.

B35: EP10 (peptide)
peptide: SDQQKTHHH
Turning to B35, the binding result with recombinant KDM5C [1] is on record as “binds”.

B36: EP12 (peptide)
peptide: SDQTKTHHH
As to B36, the binding result with recombinant KDM5C [1] is “binds”.

B37: EP41 (peptide)
peptide: RTKQTARKSTGG
B37: in the test with recombinant KDM5C [1], the binding result is “binds”.

B38: EP26 (peptide)
peptide: TTQS[Nle]THHH
B38: in the test with recombinant KDM5C [1], the binding result is “binds”.

B39: EP31 (peptide)
peptide: TTQQ[Nle]THHH
In the case of B39, in the test with recombinant KDM5C [1], the binding result was “binds”.

B40: EP36 (peptide)
peptide: TTQT[Nle]THHH
Turning to B40, the binding result with recombinant KDM5C [1] is “binds”.

B41: EP43 (peptide)
peptide: GAKRHRKVLRDNI
In the case of B41, in the test with recombinant KDM5C [1], the binding result was “binds”.

B42: EP30 (peptide)
peptide: SDQQ[Nle]THHH
On to B42, for which the binding result with recombinant KDM5C [1] is “binds”.

B43: EP32 (peptide)
peptide: SDQT[Nle]THHH
For B43, the binding result in the test with recombinant KDM5C [1] was “binds”.
